Results on 1 molecule are retold here after PMC11393341, “The ASC inflammasome adapter governs SAA-derived protein aggregation in inflammatory amyloidosis” (EMBO Molecular Medicine, 2024).

The test concerns the target T1, Monomeric human ASC-His (recombinant full-length ASC) (human, UniProt Q9ULZ3 1-195).
T1 construct: ASC (apoptosis-associated speck-like protein containing a CARD), human, recombinant full-length, monomeric; The methods list ASC-His and ASC-GFP-His; also called apoptosis-associated speck-like protein containing a caspase recruitment domain; monomeric recombinant human ASC; source: E. coli BL21(DE3), purified from inclusion bodies (Nickel beads, size exclusion chromatography)
Description: limited proteolysis-coupled mass spectrometry (LiP-MS); purified monomeric recombinant ASC incubated with monomeric recombinant human SAA1, 15 min at 37 °C in LiP buffer (100 mM HEPES pH 7.4, 150 mM KCl, 1 mM MgCl2); proteinase K 1:100 (w/w) 5 min at 37 °C; ASC peptides compared with and without SAA1. Conditions: both partners purified.

T1 sequence (Q9ULZ3 whole entry, the tested form may be a part): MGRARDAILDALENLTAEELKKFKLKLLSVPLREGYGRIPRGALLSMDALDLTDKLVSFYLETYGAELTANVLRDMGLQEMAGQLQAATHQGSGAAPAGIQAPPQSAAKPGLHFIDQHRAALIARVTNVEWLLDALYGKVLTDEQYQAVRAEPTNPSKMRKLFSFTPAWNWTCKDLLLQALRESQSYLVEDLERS

B1: recombinant human SAA1 (natural protein, UniProt P0DJI8 19-122, looked up)
chain: RSFFSFLGEAFDGARDMWRAYSDMREANYIGSDKYFHARGNYDAAKRGPGGAWAAEVITDARENIQRFFGHGAEDSLADQAANEWGRSGKDPNHFRPAGLPEKY
notes: Serum amyloid A-1 (SAA1), human, recombinant; The assay format tells the two apart; How the fibrils were made is not described; also called serum amyloid A; monomeric recombinant human SAA1
As to B1, the binding result is recorded as “binds”.
